Measurements taken from publication PMC9221696.

B1: wild-type Fas receptor (Fas/CD95) tagged with mCerulean3 or mVenus [human] / Cerulean3-tagged FADD containing only the death domain (FADD DD) [human] (parent)
chain 1: LCAAFNVICDNVGKDWRRLARQLKVSDTKIDSIEDRYPRNLTERVRESLRIWKNTEKENATVAHLVGALRSCQMNLVADLVQEVQ
chain 2: QVTDINSKGLELRKTVTTVETQNLEGLHHDGQFCHKPCPPGERKARDCTVNGDEPDCVPCQEGKEYTDKAHFSSKCRRCRLCDEGHGLEVEINCTRTQNTKCRCKPNFFCNSTVCEHCDPCTKCEHGIIKECTLTSNTKCKEEGSRSNLGWLCLLLLPIPLIVWVKRKEVQKTCRKHRKENQGSHESPTLNPETVAINLSDVDLSKYITTIAGVMTLSQVKGFVRKNGVNEAKIDEIKNDNVQDTAEQKVQLLRNWHQLHGKKEAYDTLIKDLKKANLCTLAEKIQTIILKDITSDSENSNFRNEIQSLV

Variants of: B1
Assay: flow-cytometric FRET between Fas and FADD DD in live cells
Details: with Cerulean3-tagged FADD containing only the death domain (FADD DD) [human], RapoC2 (Fas-deficient Jurkat) cells, read off a plot

| Variant | screen value (FasL-LZ 5 min, parent: 1.3) | screen value (FasL-LZ 15 min, parent: 1.5) | screen value (FasL-LZ 30 min, parent: 1.7) | screen value (FasL-LZ 60 min, parent: 1.9) | screen value (FasL-LZ 120 min, parent: 1.9) |
| --- | --- | --- | --- | --- | --- |
| chain 2 QVTDINSKGLELRKTVTTVETQNLEGLHHDGQFCHKPCPPGERKARDCTVNGDEPDCVPCQEGKEYTDKAHFSSKCRRCRLCDEGHGLEVEINCTRTQNTKCRCKPNFFCNSTVCEHCDPCTKCEHGIIKECTLTSNTKCKEEGSRSNLGWLCLLLLPIPLIVWVKRKEVQKTCRKHRKENQGSHESPTLNPETVAINLSDVDLSKYITTIAGVMTLSQVKGFVRKNGVNEDKIDEIKNDNVQDTAEQKVQLLRNWHQLHGKKEAYDTLIKDLKKANLCTLAEKIQTIILKDITSDSENSNFRNEIQSLV [chain 2 A232D] | 1.1 | 1.1 | 1.1 | 1.1 | 1.1 |
| chain 2 QVTDINSKGLELRKTVTTVETQNLEGLHHDGQFCHKPCPPGERKARDCTVNGDEPDCVPCQEGKEYTDKAHFSSKCRRCRLCDEGHGLEVEINCTRTQNTKCRCKPNFFCNSTVCEHCDPCTKCEHGIIKECTLTSNTKCKEEGSRSNLGWLCLLLLPIPLIVWVKRKEVQKTVRKHRKENQGSHESPTLNPETVAINLSDVDLSKYITTIAGVMTLSQVKGFVRKNGVNEAKIDEIKNDNVQDTAEQKVQLLRNWHQLHGKKEAYDTLIKDLKKANLCTLAEKIQTIILKDITSDSENSNFRNEIQSLV [chain 2 C174V] | 1.4 | 1.6 | 1.8 | 1.9 | 2 |
| chain 2 QVTDINSKGLELRKTVTTVETQNLEGLHHDGQFCHKPCPPGERKARDCTVNGDEPDCVPCQEGKEYTDKAHFSSKCRRCRLCDEGHGLEVEINCTRTQNTKCRCKPNFFCNSTVCEHCDPCTKCEHGIIKECTLTSNTKCKEEGSRSNLGWLCLLLLPIPLIVWVKRKEVQKTCRKHRKENQGSHESPTLNPETVAINLSDVDLSKYITTIAGVMTLSQVKGFVRKNGVNEAKIDKIKNDNVQDTAEQKVQLLRNWHQLHGKKEAYDTLIKDLKKANLCTLAEKIQTIILKDITSDSENSNFRNEIQSLV [chain 2 E236K] | 1.1 | 1.1 | 1.1 | 1.1 | 1.1 |
